Data published in the PETadex activity labels (doi:10.3390/ijms25158120).

Key:
[1] = substrate: p-NP-C4; conditions: pH 6; 70 °C
[2] = Melting temperature [DSF / Thermofluor]; conditions: pH 8.5
[3] = substrate: pNPB; assay: Proxy for plastic degradation [Residual activity]; conditions: pH 7
[4] = substrate: pNPB; assay: Proxy for plastic degradation [Relative activity]; conditions: pH 7
[5] = substrate: pNPB; assay: Proxy for plastic degradation [Specific activity]
[6] = substrate: PET; assay: Proxy for plastic degradation [Released monomer concentration (HPLC/LC-MS) (TPA)]; conditions: pH 7
[7] = substrate: PET; assay: Proxy for plastic degradation [Released monomer concentration (HPLC/LC-MS) (BHET)]; conditions: pH 7
[8] = substrate: BHET; assay: Proxy for plastic degradation [Released monomer concentration (HPLC/LC-MS) (MHET)]; conditions: pH 7
[9] = substrate: PET; assay: as above; conditions: pH 7
[10] = substrate: PET; assay: Proxy for plastic degradation [Released monomer concentration (HPLC/LC-MS) (TPA+MHET+BHET)]; conditions: pH 7
[11] = substrate: PET; assay: Proxy for plastic degradation [Released monomer concentration (HPLC/LC-MS) (TPA+MHET+BHET+Total aromatic products)]; conditions: pH 7, 0 h
[12] = 30 °C, 0 h, part of the chain shown
[13] = 30 °C, 48 h, part of the chain shown
[14] = 30 °C, 72 h, part of the chain shown
[15] = 30 °C, 96 h, part of the chain shown

B1: unnamed (protein)
chain: MKIVKTLLTVIFSVLMVVSMAHAVQIGPNPTSTLLNGDGPFAVSSSSVSSLACGTGCAGGTVYYPTTAGQYGVIAVCPGYTGTSSSIAWFARRLATHGFVTIAMDTNSTLDYPSSRATQLAAALRYLINSSSSTIRSRIRTADRGVAGHSMGGGGTLIASADDSTLRVGIPMTPWNTYTSFSSVRVPQMIFGADGDTIASASSHARPFYNSITQAEKAYALLNDASHFTPNSTDQRIGRYGVAFAKRFVDGDTRYNPFLCGAEHTAYATSSRFDTYLSNCPY
B1 showed a Km [1] of 80 µM, a kcat [1] of 447 s⁻¹ and a kcat/Km [1] of 5.59e+06 M⁻¹ s⁻¹. For the same protein, the Melting temperature [2] was 82 °C, the “Proxy for plastic degradation” value ([3]; 50 °C, 0 h) was 100% and the “Proxy for plastic degradation” value ([3]; 50 °C, 0.33 h) was 54%. The “Proxy for plastic degradation” value ([3]; 50 °C, 0.5 h) was 38%, the “Proxy for plastic degradation” value ([3]; 50 °C, 1 h) was 49% and the “Proxy for plastic degradation” value ([3]; 50 °C, 2 h) was 57%. The “Proxy for plastic degradation” value ([3]; 50 °C, 3 h) was 46%, the “Proxy for plastic degradation” value ([3]; 50 °C, 6 h) was 65% and the “Proxy for plastic degradation” value ([3]; 50 °C, 24 h) was 52%. For the same protein, the “Proxy for plastic degradation” value ([3]; 50 °C, 48 h) was 55%, the “Proxy for plastic degradation” value ([3]; 50 °C, 72 h) was 43% and the “Proxy for plastic degradation” value ([3]; 50 °C, 96 h) was 30%. For the same protein, the “Proxy for plastic degradation” value ([3]; 70 °C, 0 h) was 100%, the “Proxy for plastic degradation” value ([3]; 70 °C, 0.33 h) was 54% and the “Proxy for plastic degradation” value ([3]; 70 °C, 0.5 h) was 51%. The “Proxy for plastic degradation” value ([3]; 70 °C, 2 h) was 70%, the “Proxy for plastic degradation” value ([3]; 70 °C, 3 h) was 51% and the “Proxy for plastic degradation” value ([3]; 70 °C, 6 h) was 50%. For the same protein, the “Proxy for plastic degradation” value ([3]; 70 °C, 24 h) was 52%, the “Proxy for plastic degradation” value ([3]; 70 °C, 48 h) was 47% and the “Proxy for plastic degradation” value ([3]; 70 °C, 72 h) was 20%. The “Proxy for plastic degradation” value ([3]; 70 °C, 96 h) was 17%, the “Proxy for plastic degradation” value ([4]; 50 °C, 0 h) was 100% and the “Proxy for plastic degradation” value ([4]; 50 °C, 0.33 h) was 55%. For the same protein, the “Proxy for plastic degradation” value ([4]; 50 °C, 0.5 h) was 38%, the “Proxy for plastic degradation” value ([4]; 50 °C, 1 h) was 50% and the “Proxy for plastic degradation” value ([4]; 50 °C, 2 h) was 60%. The “Proxy for plastic degradation” value ([4]; 50 °C, 4 h) was 48%, the “Proxy for plastic degradation” value ([4]; 50 °C, 6 h) was 65% and the “Proxy for plastic degradation” value ([4]; 50 °C, 24 h) was 50%. The “Proxy for plastic degradation” value ([4]; 50 °C, 48 h) was 52%, the “Proxy for plastic degradation” value ([4]; 50 °C, 72 h) was 40% and the “Proxy for plastic degradation” value ([4]; 50 °C, 96 h) was 35%. The “Proxy for plastic degradation” value ([4]; 70 °C, 0 h) was 100%, the “Proxy for plastic degradation” value ([4]; 70 °C, 0.33 h) was 55% and the “Proxy for plastic degradation” value ([4]; 70 °C, 0.5 h) was 52%. For the same protein, the “Proxy for plastic degradation” value ([4]; 70 °C, 1 h) was 50%, the “Proxy for plastic degradation” value ([4]; 70 °C, 2 h) was 70% and the “Proxy for plastic degradation” value ([4]; 70 °C, 4 h) was 50%. The “Proxy for plastic degradation” value ([4]; 70 °C, 6 h) was 48%, the “Proxy for plastic degradation” value ([4]; 70 °C, 24 h) was 50% and the “Proxy for plastic degradation” value ([4]; 70 °C, 48 h) was 40%. For the same protein, the “Proxy for plastic degradation” value ([4]; 70 °C, 72 h) was 20%, the “Proxy for plastic degradation” value ([4]; 70 °C, 96 h) was 18% and the “Proxy for plastic degradation” value ([5]; pH 4) was 0 U/mg. For the same protein, the “Proxy for plastic degradation” value ([5]; pH 5) was 225 U/mg, the “Proxy for plastic degradation” value ([5]; pH 7) was 200 U/mg and the “Proxy for plastic degradation” value ([5]; pH 7, 50 °C) was 500 U/mg. For the same protein, the “Proxy for plastic degradation” value ([5]; pH 9) was 150 U/mg, the “Proxy for plastic degradation” value ([5]; pH 10) was 75 U/mg and the “Proxy for plastic degradation” value ([6]; 30 °C, 0 h) was 0 µM. The “Proxy for plastic degradation” value ([6]; 50 °C, 0 h) was 0 µM, the “Proxy for plastic degradation” value ([6]; 50 °C, 48 h) was 140 µM and the “Proxy for plastic degradation” value ([6]; 50 °C, 96 h) was 330 µM. For the same protein, the “Proxy for plastic degradation” value ([6]; 70 °C, 0 h) was 0 µM, the “Proxy for plastic degradation” value ([6]; 70 °C, 24 h) was 180 µM and the “Proxy for plastic degradation” value ([7]; 30 °C, 0 h) was 0 µM. The “Proxy for plastic degradation” value ([7]; 50 °C, 0 h) was 0 µM, the “Proxy for plastic degradation” value ([7]; 50 °C, 48 h) was 10 µM and the “Proxy for plastic degradation” value ([7]; 70 °C, 0 h) was 0 µM. For the same protein, the “Proxy for plastic degradation” value ([7]; 70 °C, 24 h) was 5 µM, the “Proxy for plastic degradation” value ([7]; 70 °C, 48 h) was 3 µM and the “Proxy for plastic degradation” value ([7]; 70 °C, 72 h) was 2 µM. For the same protein, the “Proxy for plastic degradation” value ([8]; 30 °C, 0 h) was 0 µM, the “Proxy for plastic degradation” value ([8]; 30 °C, 40 h) was 4 µM and the “Proxy for plastic degradation” value ([8]; 30 °C, 60 h) was 5 µM. For the same protein, the “Proxy for plastic degradation” value ([8]; 50 °C, 0 h) was 0 µM, the “Proxy for plastic degradation” value ([8]; 70 °C, 0 h) was 0 µM and the “Proxy for plastic degradation” value ([9]; 30 °C, 0 h) was 0 µM. For the same protein, the “Proxy for plastic degradation” value ([9]; 30 °C, 24 h) was 240 µM, the “Proxy for plastic degradation” value ([9]; 50 °C, 0 h) was 0 µM and the “Proxy for plastic degradation” value ([9]; 70 °C, 0 h) was 0 µM. For the same protein, the “Proxy for plastic degradation” value ([9]; 70 °C, 24 h) was 180 µM, the “Proxy for plastic degradation” value ([10]; 30 °C, 0 h) was 0 µM and the “Proxy for plastic degradation” value ([10]; 30 °C, 24 h) was 320 µM. The “Proxy for plastic degradation” value ([10]; 30 °C, 48 h) was 380 µM, the “Proxy for plastic degradation” value ([10]; 30 °C, 72 h) was 390 µM and the “Proxy for plastic degradation” value ([10]; 30 °C, 96 h) was 400 µM. The “Proxy for plastic degradation” value ([10]; 50 °C, 0 h) was 0 µM, the “Proxy for plastic degradation” value ([10]; 50 °C, 24 h) was 500 µM and the “Proxy for plastic degradation” value ([10]; 50 °C, 48 h) was 620 µM. For the same protein, the “Proxy for plastic degradation” value ([10]; 50 °C, 72 h) was 630 µM, the “Proxy for plastic degradation” value ([10]; 50 °C, 96 h) was 700 µM and the “Proxy for plastic degradation” value ([10]; 70 °C, 0 h) was 0 µM. For the same protein, the “Proxy for plastic degradation” value ([10]; 70 °C, 24 h) was 370 µM, the “Proxy for plastic degradation” value ([10]; 70 °C, 48 h) was 410 µM and the “Proxy for plastic degradation” value ([10]; 70 °C, 72 h) was 405 µM. For the same protein, the “Proxy for plastic degradation” value ([10]; 70 °C, 96 h) was 410 µM, the “Proxy for plastic degradation” value ([11]; 30 °C) was 0 µM and the “Proxy for plastic degradation” value ([11]; 50 °C) was 0 µM. The “Proxy for plastic degradation” value ([11]; 70 °C) was 0 µM.

B2: unnamed (protein)
chain: MNFPRASRLMQAAVLGGLMAVSAAATAQTNPYARGPNPTAASLEASAGPFTVRSFTVSRPSGYGAGTVYYPTNAGGTVGAIAIVPGYTARQSSIKWWGPRLASHGFVVITIDTNSTLDQPSSRSSQQMAALRQVASLNGTSSSPIYGKVDTARMGVMGWSMGGGGSLISAANNPSLKAAAPQAPWDSSTNFSSVTVPTLIFACENDSIAPVNSSALPIYDSMSRNAKQFLEINGGSHSCANSGNSNQALIGKKGVAWMKRFMDNDTRYSTFACENPNSTRVSDFRTANCS
With B2 the “Proxy for plastic degradation” value [6, 12] was 0 µM, the “Proxy for plastic degradation” value [6, 13] was 60 µM and the “Proxy for plastic degradation” value [7, 12] was 0 µM. The “Proxy for plastic degradation” value [7, 14] was 26 µM, the “Proxy for plastic degradation” value [8, 12] was 0 µM and the “Proxy for plastic degradation” value ([8]; 30 °C, 20 h, part of the chain shown) was 12 µM. For the same protein, the “Proxy for plastic degradation” value ([8]; 30 °C, 40 h, part of the chain shown) was 19 µM, the “Proxy for plastic degradation” value ([8]; 30 °C, 60 h, part of the chain shown) was 24 µM and the “Proxy for plastic degradation” value ([8]; 50 °C, 0 h, part of the chain shown) was 0 µM. The “Proxy for plastic degradation” value ([8]; 50 °C, 40 h, part of the chain shown) was 5.9 µM, the “Proxy for plastic degradation” value ([8]; 50 °C, 60 h, part of the chain shown) was 5.6 µM and the “Proxy for plastic degradation” value ([8]; 70 °C, 0 h, part of the chain shown) was 0 µM. The “Proxy for plastic degradation” value ([8]; 70 °C, 20 h, part of the chain shown) was 2.3 µM, the “Proxy for plastic degradation” value ([8]; 70 °C, 40 h, part of the chain shown) was 3 µM and the “Proxy for plastic degradation” value ([8]; 70 °C, 60 h, part of the chain shown) was 1.85 µM. For the same protein, the “Proxy for plastic degradation” value ([8]; part of the chain shown) was 4 µM, the “Proxy for plastic degradation” value [9, 12] was 0 µM and the “Proxy for plastic degradation” value [9, 13] was 505 µM. The “Proxy for plastic degradation” value [9, 15] was 460 µM, the “Proxy for plastic degradation” value [10, 12] was 0 µM and the “Proxy for plastic degradation” value ([10]; 30 °C, 24 h, part of the chain shown) was 580 µM. For the same protein, the “Proxy for plastic degradation” value [10, 13] was 590 µM, the “Proxy for plastic degradation” value [10, 14] was 600 µM and the “Proxy for plastic degradation” value [10, 15] was 520 µM.

B3: unnamed (protein)
chain: MQTNPYARGPNPTAASLEASAGPFTVRSFTVSRPSGYGAGTVYYPTNAGGTVGAIAIVPGYTARQSSIKWWGPRLASHGFVVITIDTNSTLDQPSSRSSQQMAALRQVASLNGTSSSPIYGKVDTARMGVMGWSMGGGGSLISAANNPSLKAAAPQAPWDSSTNFSSVTVPTLIFACENDSIAPVNSSALPIYDSMSRNAKQFLEINGGSHSCANSGNSNQALIGKKGVAWMKRFMDNDTRYSTFACENPNSTRVSDFRTANCSLEHHHHHH
With B3 the “Proxy for plastic degradation” value ([8]; 30 °C, 0 h) was 0 µM, the “Proxy for plastic degradation” value ([8]; 30 °C, 20 h) was 12 µM and the “Proxy for plastic degradation” value ([8]; 30 °C, 40 h) was 20 µM. For the same protein, the “Proxy for plastic degradation” value ([8]; 30 °C, 60 h) was 25 µM, the “Proxy for plastic degradation” value ([8]; 50 °C, 0 h) was 0 µM and the “Proxy for plastic degradation” value ([8]; 50 °C, 20 h) was 5 µM. For the same protein, the “Proxy for plastic degradation” value ([8]; 50 °C, 40 h) was 5.5 µM, the “Proxy for plastic degradation” value ([8]; 50 °C, 60 h) was 5.5 µM and the “Proxy for plastic degradation” value ([8]; 70 °C, 0 h) was 0 µM. The “Proxy for plastic degradation” value ([8]; 70 °C, 20 h) was 2.5 µM, the “Proxy for plastic degradation” value ([8]; 70 °C, 40 h) was 3 µM and the “Proxy for plastic degradation” value ([8]; 70 °C, 60 h) was 2 µM. For the same protein, the “Proxy for plastic degradation” value ([11]; 30 °C) was 0 µM.
